Values of other authors as cited in article PMC10872408 (Structure (London, England : 1993), 2023).

Target: Gαi3 (Rattus norvegicus) (UniProt P08753)
Conditions: cited from earlier work

Chain of GINIP (Q9UPV7 2-400): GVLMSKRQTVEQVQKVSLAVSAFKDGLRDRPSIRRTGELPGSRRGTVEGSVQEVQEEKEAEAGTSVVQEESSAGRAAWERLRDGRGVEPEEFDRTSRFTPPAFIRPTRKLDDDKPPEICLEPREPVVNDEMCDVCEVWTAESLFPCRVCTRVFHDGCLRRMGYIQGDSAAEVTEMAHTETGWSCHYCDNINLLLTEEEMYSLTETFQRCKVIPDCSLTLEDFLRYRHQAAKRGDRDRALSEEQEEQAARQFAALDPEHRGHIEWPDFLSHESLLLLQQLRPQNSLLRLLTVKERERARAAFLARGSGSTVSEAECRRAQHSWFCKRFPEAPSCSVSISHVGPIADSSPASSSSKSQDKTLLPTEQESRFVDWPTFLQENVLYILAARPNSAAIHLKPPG
Chain of Gαi3 (Rattus norvegicus) (P08753 2-354): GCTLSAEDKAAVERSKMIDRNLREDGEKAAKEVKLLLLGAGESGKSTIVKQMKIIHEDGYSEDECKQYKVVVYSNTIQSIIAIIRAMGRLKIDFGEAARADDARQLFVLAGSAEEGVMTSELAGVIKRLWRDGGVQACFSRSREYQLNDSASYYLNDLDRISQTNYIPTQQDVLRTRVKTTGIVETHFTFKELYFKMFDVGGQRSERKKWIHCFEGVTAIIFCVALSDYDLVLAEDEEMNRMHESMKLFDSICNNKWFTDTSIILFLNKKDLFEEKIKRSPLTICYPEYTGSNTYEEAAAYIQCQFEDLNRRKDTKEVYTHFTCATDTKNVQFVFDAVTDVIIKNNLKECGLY

For GINIP (from UniProt Q9UPV7), the Kd is given as 65 nM.
